B1: GST fusion protein of the constitutively open mutant of cytoplasmic region Stx3 (L165A/E166A) (domain or fragment, rat, UniProt Q08849 1-265, looked up)
chain: MKDRLEQLKAKQLTQDDDTDEVEIAIDNTAFMDEFFSEIEETRLNIDKISEHVEEAKKLYSIILSAPIPEPKTKDDLEQLTTEIKKRANNVRNKLKSMEKHIEEDEVRSSADLRIRKSQHSVLSRKFVEVMTKYNEAQVDFRERSKGRIQRQLEITGKKTTDEEAAEMLESGNPAIFTSGIIDSQISKQALSEIEGRHKDIVRLESSIKELHDMFMDIAMLVENQGEMLDNIELNVMHTVDHVEKARDETKRAMKYQGQARKKLI
notes: syntaxin 3 (Stx3), rat, cytoplasmic region, residues 1-265, with LE165/166AA; Made by site-directed mutagenesis in the Stx3 (1–265) pGEX-4T-3 plasmid; also called open-conformation mutant (LE165/166AA); source: E. coli Rosetta 2, purified (glutathione agarose, eluted with glutathione, dialyzed)
B2: GST-fusion protein containing only the Habc domain (1–146) of Stx3 (domain or fragment, rat, UniProt Q08849 1-146, looked up)
chain: MKDRLEQLKAKQLTQDDDTDEVEIAIDNTAFMDEFFSEIEETRLNIDKISEHVEEAKKLYSIILSAPIPEPKTKDDLEQLTTEIKKRANNVRNKLKSMEKHIEEDEVRSSADLRIRKSQHSVLSRKFVEVMTKYNEAQVDFRERSK
notes: syntaxin 3 (Stx3), rat, N-terminal region with the Habc domain, residues 1-146; Cloned into pGEX-4T-3, which by my knowledge puts GST at the N-terminus; also called GST-Stx3-Habc; GST-Stx3-1–146; source: E. coli Rosetta 2, purified (glutathione agarose, eluted with glutathione, dialyzed)

What was measured:
[1] = molecular target: T1, ubiquitin on ubiquitin-coated agarose beads (UniProt P0CG53 1-76); assay: pull-down; ubiquitin-coated agarose beads with 1 µM purified GST-fusion protein in Buffer A (25 mM HEPES–KOH pH 7.4, 125 mM potassium acetate, 2.5 mM magnesium acetate, 5 mM EGTA) + 1% FBS, 2 h at room temperature; uncoated CL4B beads as control; immunoblot with anti-GST or anti-Stx3; conditions: both partners purified
T1 construct: ubiquitin, the cut product of the ubiquitin precursors; Coupled to agarose; also called ubiquitin-coated beads; ubiquitin-coated (U) agarose beads; source: bought: Millipore-Sigma (ubiquitin-coated agarose)

[2] = molecular target: T2, Purified bovine ubiquitin (bovine, UniProt P0CG53 1-76); assay: SPR; Biacore 2000, room temperature, HBS-EP buffer (10 mM HEPES pH 7.4, 150 mM NaCl, 3 mM EDTA, 0.005% Tween-20); GST-fusion proteins captured on a CM5 chip with a GST capture kit, free ubiquitin flowed over; conditions: both partners purified
T2 construct: ubiquitin, bovine, the cut product of the ubiquitin precursors; also called free ubiquitin; mono-ubiquitin in solution; source: bought: Millipore-Sigma (U6253)

Row | Binder | fold change of pull-down against wild-type Stx3 [1] | Kd [2] | fold change of pull-down against the entire Stx3 cytoplasmic domain [1]
1 | B1 | 1.73 fold | – | –
2 | B2 | – | 1360 µM | 3.78 fold

From PMC7721868 (Scientific Reports, 2020)
